{
  "source": "patent US20240092842A1",
  "target": "PME crude extract of Arabidopsis thaliana stem (Arabidopsis thaliana)",
  "test": "cell-based or functional assay",
  "data": [
    {"substance": "recombinant GhPMEI39 protein (pColdTF-GhPMEI39 fusion protein with 6xHis-Tag, expressed in Escherichia coli BL21 (DE3))", "values": [
      {"measurement": "PME enzyme activity in the reaction solution (pectin / bromothymol blue, OD 620 nm) at PME:GhPMEI39 1:2", "result": 24, "unit": "%"}
    ]}
  ]
}
